Experimental data reported in IntAct's records for PubMed 30721249.

B1: Oxysterol-binding protein-related protein 1 (Homo sapiens), Q9BXW6 (parent)
chain: MNTEAEQQLLHHARNGNAEEVRQLLETMARNEVIADINCKGRSKSNLGWTPLHLACYFGHRQVVQDLLKAGAEVNVLNDMGDTPLHRAAFTGRKELVMLLLEYNADTTIVNGSGQTAKEVTHAEEIRSMLEAVERTQQRKLEELLLAAAREGKTTELTALLNRPNPPDVNCSDQLGNTPLHCAAYRAHKQCALKLLRSGADPNLKNKNDQKPLDLAQGAEMKHILVGNKVIYKALKRYEGPLWKSSRFFGWRLFWVVLEHGVLSWYRKQPDAVHNIYRQGCKHLTQAVCTVKSTDSCLFFIKCFDDTIHGFRVPKNSLQQSREDWLEAIEEHSAYSTHYCSQDQLTDEEEEDTVSAADLKKSLEKAQSCQQRLDREISNFLKMIKECDMAKEMLPSFLQKVEVVSEASRETCVALTDCLNLFTKQEGVRNFKLEQEQEKNKILSEALETLATEHHELEQSLVKGSPPASILSEDEFYDALSDSESERSLSRLEAVTARSFEEEGEHLGSRKHRMSEEKDCGGGDALSNGIKKHRTSLPSPMFSRNDFSIWSILRKCIGMELSKITMPVIFNEPLSFLQRLTEYMEHTYLIHKASSLSDPVERMQCVAAFAVSAVASQWERTGKPFNPLLGETYELVRDDLGFRLISEQVSHHPPISAFHAEGLNNDFIFHGSIYPKLKFWGKSVEAEPKGTITLELLEHNEAYTWTNPTCCVHNIIVGKLWIEQYGNVEIINHKTGDKCVLNFKPCGLFGKELHKVEGYIQDKSKKKLCALYGKWTECLYSVDPATFDAYKKNDKKNTEEKKNSKQMSTSEELDEMPVPDSESVFIIPGSVLLWRIAPRPPNSAQMYNFTSFAMVLNEVDKDMESVIPKTDCRLRPDIRAMENGEIDQASEEKKRLEEKQRAARKNRSKSEEDWKTRWFHQGPNPYNGAQDWIYSGSYWDRNYFNLPDIY

Variants of: B1
Details: with rab7a_human RAB7A
For F58E, the “effect of a mutation on the interaction” value was “disrupting interaction strength”.
